The values below come from US20260053920A1 (published 2026).

For experiment [1], the target named is T1, IMP2 peptide on HLA-A*02:01 (human).
T1 peptide: NLSALGIFST
In words: stated without data.

Experiment [2] concerns the target T2, BST2 peptide on HLA-A*02:01 (human).
T2 peptide: LLLGIGILVL
The experiment is described as follows: multimer staining.

Experiment [3] deals with T1, IMP2 peptide on HLA-A*02:01. In words: multimer staining.

B1: MEL58 (TCR)
alpha TRAV23DV6 TRAJ54 CDR3: CAARGAQKLVF
beta TRBV6-5 TRBJ1-6 CDR3: CASSYVGLGSPLHF
With B1, the binding result in experiment [1] was “recognises”.

B2: MEL8 (TCR, V domains shown)
Valpha: QKEVEQNSGPLSVPEGAIASLNCTYSDRGSQSFFWYRQYSGKSPELIMSIYSNGDKEDGRFTAQLNKASQYVSLLIRDSQPSDSATYLCAVQKLVFGTGTRLLVSP
Vbeta: NAGVTQTPKFQVLKTGQSMTLQCAQDMNHEYMSWYRQDPGMGLRLIHYSVGAGITDQGEVPNGYNVSRSTTEDFPLRLLSAAPSQTSVYFCASSYSFTEATYEQYFGPGTRLTVT
For B2, the binding result in experiment [2] and in experiment [3] was “recognises” throughout.

B3: MEL56 (TCR)
alpha TRAV12-3 TRAJ35 CDR3: CAMSVGFGNVLHC
beta TRBV27 TRBJ2-7 CDR3: CASSLGLAGNEQYF
Turning to B3, the binding result in experiment [1] is listed as “recognises”.

B4: MEL11 (TCR)
alpha TRAV12-2*01 TRAJ30 CDR3: CAVNYEDDKIIF
beta TRBV9 TRBJ2-7 CDR3: CASSVGVQGSWEQYF
With B4, the binding result in experiment [2] and in experiment [3] was “recognises” in each case.

B5: MEL25 (TCR)
alpha TRAV8-6 TRAJ47 CDR3: CAVSDNGNKLVF
beta TRBV12-4 TRBJ2-7 CDR3: CASSWAGPVEQYF
Regarding B5, the binding result in experiment [2] and in experiment [3] was “recognises” throughout.

B6: CLL9 (TCR)
alpha TRAV12-2*01 TRAJ9 CDR3: CAVGAGGFKTIF
beta TRBV2*02 TRBJ2-7 CDR3: CASSESPLSGNEQYF
Regarding B6, the figures for the binding result in experiment [2] and in experiment [3] were “no recognition” and “recognises”, respectively.
